Measurements as given in publication PMC8237704.

Target: GluN1 NMDA receptor subunit, isoform GluN1-2a, with a fluorescent protein on the C-terminus (GluN1-GFP; GluN1-mCherry)
Assay: FRET or BRET

“GluN1 NMDA receptor subunit, isoform GluN1-2a, with a fluorescent protein on the C-terminus (GluN1-GFP; GluN1-mCherry)” gave an FRET efficiency of 5.8%.
